# Reference: the DeepSol protein solubility set
# Experiment: soluble on expression in E. coli; label from the status in PepcDB or PDB records
row,Sequence,soluble on expression in E. coli
1,MSLASKSIRILSVEDHPVVREGLVSIIGSQPDMVLVAQATNGSDAIAQFRTHHPDITLMDLRLPGISGTDALISIRGEFPRARVIILTTSDSHTEIDRALRAGAAAYILKSMPMNEMLAVIRSVHAGARHIPQEVASRLAENIGEESLTSRELEVLHLIRDGHRNKQIADELSISETTVNFHIKNIVGKMGANDRTHAVTIAVRRGLLQEGHHHHHH,soluble
2,MVNAIRTPDQRFSNLDQYPFSPNYLDDLPGYPGLRAHYLDEGNSDAEDVFLCLHGEPTWSYLYRKMIPVFAESGARVIAPDFFGFGKSDKPVDEEDYTFEFHRNFLLALIERLDLRNITLVVQDWGGFLGLTLPMADPSRFKRLIIMNACLMTDPVTQPAFSAFVTQPADGFTAYKYDLVTPSDLRLDQFMKRWAPTLTEAEASAYAAPFPDTSYQAGVRKFPKMVAQRDQACIDISTEAISFWQNDWNGQTFMAIGMKDKLLGPDVMYPMKALINGCPEPLEIADAGHFVQEFGEQVAREALKHFAETE,soluble
3,SNQECPDYLRELIRKTKTLTEKPFGIGVVLAFPHDLNIKTILEEKVAVLQLYWGDCSQELVDDAHFAGVKVIPQVGNVEEARKAVAVGVDAIIVQGREAGGHVIGKDGLFSLLPRVVDLVGERDIPVIAAGGIVDGRGYVAALSLGAQGVCLGTRFVATHESYAHPIYKRKLIEYEKTEYTDVFGRARWPGAPQRVLETPFFDDWRSLPAHENEVNQPIIGRSTIHGVEKEIRRFSGTVPNMTTTGDLESMAMYAGQSVGLIKEILPAGEVVKSLVEEAQALILQKFNNATTT,soluble
4,MSSIGKEDIYESDGAASQVQKSEPENDNPTHPDIELISVDVDEALKKYKNRVLNLTSSDFSDSIAKKRRHAFGNNQYVLEVTGAGFSGTETAAEKLNRILYEVADLNEQIRADENLKTDLLNAEVLENLEKEVKTLQVAQSNGKTARVEHDVELPNVRTDSKVATLENRLRRIEQVIGSSVIPSAPVLDTIEDLKLRCETLNHSYVSGLEQRLNMMLTKLEKIDETRANNDIDENLDKKVDEILELMQKWDVACSSLPSNVNKVKALNRLHEQVQHFAGGLSHLKTIREKLEKEVAQGREAIIEYESQGKQEIGSVVEKLKLLEAKVADLK,not soluble
5,AVKTYGMFIGTQFDSSKFLYSAFQAESNLGIWRFAHDKRPKKQSFCRTEKSRRIAIDIVQGWLAVDYDLVGDVRIIRSVLVVSSEPIQTDYTNFTGLTGKPMELSQLLTITQSQSSAKLVCSCFRVTDKQIHDAMEKQDCTSLTQLQNKLKCGTNCGSCISQIKQMVDSHQHQKGKQQASQQSLAIQIK,not soluble
6,MGSDKIHHHHHHMTSANIQMAVYCFDVINAQLNREKEPPVPKEIPNVKLPLFVTWKKGHQHDLRGCIGTFSDLRLGEGLNEYAKTSAFHDSRFKPISREEVPSLQCGVSLLINFEPIHNFRDWTIGRHGVRMNFDDGHRNRSAVFLPEVAQEQGWNHVETIDHLIRKSGYGGHINDALRSALRIVRFQSSKLVLDYKDYVNYKQSHGLPLPR,not soluble
7,MAHHHHHHMNEVVPHVAELMTDQYANFLIQKLFDMMPQDVRYKVARVAAPKIISIALTPHGTFSVQKMVETIASREEMDILREALSKDVVRLVKDAHGNHVIQKVLQRFSHADKEFIYAAVGSDCISIAKNKQGCCVLQRCLEYASCSQRATLVNQILRCCLQIAEDPFGNYVLQYVLESNDSKTTDTIAIAFLPHLVQLCMNKFSSNVIEKVLRGASQPVQEMYVETMCSPDVVSRLIQDDFGNYVLQTALTICSSAQAESLVSAVRPLMPIIRNAPYAKKLEGKIDGIVHKTAGNDRNSFAEYEKSRQGEMNEQNCDILLPHHARESSVAPHQQLSS,not soluble
8,MSKLSIRNLTKIFGPHPEKALGLLEQGLGKEEIHRRTSHAVGVDRASFDVEEGEIVVVMGLSGSGKSTLVRCLNRLIEPTAGTVTVDGRDVTSMPVDELRRLRQRSFGMVFQNFALFPHRTVLQNAAFGLEAMGVPRAERERQAMVSLERVGLAEWAASRPAQLSGGMQQRVGLARALSLDPDILLMDEAFSALDPLIRRDMQDELLRLQDDLQKTIVFISHDLDEALKLGDRIVLMRDGAVVQIGTPEDILTNPADDYVARFVGEADVTKVLTAGSVMKRSEAVAVLGIDGPRTALRKMRRNAIATLFVLDERHRLVGLITADDAARLAAEGVRELGSIVRRDIATVPPEAPATELISLMADLPHPLAVVDERGRLAGVIVRGLLLGALAERGGVALEHHHHHH,not soluble
9,MSLTSHLLKAEIHCHLEGAAPPALVVKQAEKYGIDTSGFLRDGQYVWSDFAEFIQCYDAVAQVFKSDEDYAVLTETYLTELAEANTIYSELIISPDHGDRIGLGADAYLAGVAEGIRIAKEKTGIETRIIVTGERHFGPERVIAAAEYAARIRHPLVTGFNMAGEERMGRVADYARAFDIARDAGLGLTIHAGEVCGPESVADALDLVKPSRIGHGVRAIEDAALISRLVETGTVLEVCPGSNIALSVYPDFASHPLKALSDAGVRVCISSDDPPFFFTSLAREYALAADAFGFNDAEINRMTRTALECAFVDEATRERLLARLGDAEGHHHHHH,soluble
10,MEKGTPPTHDSDNWMGRAKEIGNGGWDQFQFLFFDPNGYLYAVSNDKLYKASPPQSDTDNWIARATEIGSGGWSGFKFLFFHPNGYLYAVRGQRFYKALPPVSNQD,soluble
11,MTIHNFDLLVVGGGINGTGIARDAAGRHLSVCLCEQHDLASHTSSASTKLIHGGLRYLEYYEFALVSKALAEREILLRQAPHIVRPLHFILPHQPHLRPTWIIRAGLLLYDHLGFSRRTLPRSRRLNLAQHPAGQPLKQELHTGFMYCDAQVQDARLVVLNAMDAAQRGARILTRTRCVRTRRDGAHWLTELEDAQGRQQQIRTRAIVNAAGPWAVTFLDHIAQQPHQHTLRLVKGSHIVVPRLFEHEHAYIFQQPDRRIVFAIPYEQHFTLIGTTDVDYVADPANPHIDAAETMYLCNAVNSYFRQQITPEDVLWSYSGVRPLLNDGHNNASKVTRDYQLEILGNSAPLLNVFGGKLTTYRKLSEEAVNQLCVALDHPYRAWTANGPPLPGGEHHDIAALQNTLRQHRPWLPTATAQRLIHNYGTYAETLLGNATNLHTLGIHFGADLYQAEVDYLRTHEWACSAEDILWRRSKLGLHLDAHGTQRLEDYLRSCSRIPDHADTTTQLEHHHHHH,not soluble
12,MGSDKIHHHHHHMNETPLRLLEMLTQTREDLWRAAQALTERGVTRIILTGSGTSYHGALTARTFMQRWCALPVDVCWPFMLDDETLARSGKALVVGISQGGGSLSTLAAMERARNVGHITASMAGVAPATIDRAADYILTVPCGEETAGAKTKGYHCTVLNLMLLALAVAGQQQRLDGEQRRSLLLRMEKTFNHLPALVTASQAWAQTNALALRDSADIRLTGPATLFGTVQEGALKMLETLRCPVSGYEFEEFIHGIYNAFNAQSALIMLDPQPDARQDRLAQILGEWTPSIYRIGPQVENNGLNLNFPFVNDEDFAVFEYIIPLQMLCAILPPQKGINPAIPKDPQFHQKMKSKQEI,not soluble
13,MAHHHHHHMHSRTAPPLPPHTFAQVLHDRFVHYNDGKNKQTNIKRRNANNLNSFSYTAARAQGVVPRVDSTLGLLWTWRWAGAYGVACVCVCLCAADKMSAARHSHPPPPSLSRCRFPPPALFIMHRAHTYLLCIAAHLLLSPPPPSSPSRFVFASSSLSCPGCAFSWVTRFVSSMLRRTLCCGMMQLHALPTPNPLCHTFTIPADSFESFVPQGQSCEVAHRGLAWVHPLSQGLFEQYPQELMSVFIAPRHVSISVYTNVDWSKIEWSISSFLGHYLIFTNACISPAKEYTLMEDDLELKDTDTEVLQCIKELLREQVRPMVQRDGGDVKLLNFNEKTGIVSLAMLGACKTCPSSQNTLKDGIERVMKHFVPEVTEVIEDKEHQFYEDYGLLFDSEKALFKEAARLDRERQAKLRHNLTPMVLSYEVLNEPDGD,not soluble
14,MSPGPQSGGQERGSMERKMVELEDTGLTFATEVDLERLQALAAEWLQVIGEDPGREGLLKTPERVAKAWAFLTRGYRQRLEEVVGGAVFPAEGSEMVVVKGVEFYSMCEHHLLPFFGKVHIGYIPDGKILGLSKFARIVDMFARRLQVQERLAVQIAEAIQEVLEPQGVGVVVEGVHLCMMMRGVEKQHSRTVTSAMLGVFRENQKTREEFLSHLRDGTA,soluble
15,MAHHHHHHMGKHMNNQDFAETEQAARAIRKLLNGEIDTIKLENGNKLKIRSSDEKDDAHKRHNDKTNYSFIDNSEEENVQTNLLRKNETVDAGSKIVEDQEDFYILDNESIEAIANKISMENKFHEFEAEAFAQSLKDIIRSLNN,soluble
